From patent US20210292409A1 (Chugai, published 2021)

T1: human ASGPR (ASGPR-H1 and ASGPR-H2 subunits) (human, UniProt P07306 2-291; P07307 2-311)
T1 construct: Plasmids for H1 and H2 transfected in a ratio of 2:1 into HeLa cells; also called Asialoglycoprotein receptor
T1 sequence 1: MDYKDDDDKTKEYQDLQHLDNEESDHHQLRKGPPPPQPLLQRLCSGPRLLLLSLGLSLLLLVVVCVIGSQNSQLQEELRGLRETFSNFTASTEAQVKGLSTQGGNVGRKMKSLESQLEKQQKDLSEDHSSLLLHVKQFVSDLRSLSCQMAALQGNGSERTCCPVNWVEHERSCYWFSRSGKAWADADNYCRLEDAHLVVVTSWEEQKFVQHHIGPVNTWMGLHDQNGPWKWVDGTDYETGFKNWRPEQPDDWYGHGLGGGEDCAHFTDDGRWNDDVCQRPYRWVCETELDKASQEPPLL
T1 sequence 2: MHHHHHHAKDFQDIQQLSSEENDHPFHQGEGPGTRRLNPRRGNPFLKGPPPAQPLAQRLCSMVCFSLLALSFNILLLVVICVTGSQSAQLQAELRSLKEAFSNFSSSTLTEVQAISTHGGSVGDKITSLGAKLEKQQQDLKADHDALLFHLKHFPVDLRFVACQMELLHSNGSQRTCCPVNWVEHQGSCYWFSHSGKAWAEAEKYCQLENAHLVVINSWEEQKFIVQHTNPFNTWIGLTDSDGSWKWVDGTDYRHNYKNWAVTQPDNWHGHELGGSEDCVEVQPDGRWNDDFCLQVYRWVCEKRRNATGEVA

T2: human IL6R (Accession no. NP_000556) (human, UniProt P08887 20-468)
T2 construct: whole, on cells; Expressed on Flp-In-CHO cells (IL6R+CHO)
T2 sequence (looked up): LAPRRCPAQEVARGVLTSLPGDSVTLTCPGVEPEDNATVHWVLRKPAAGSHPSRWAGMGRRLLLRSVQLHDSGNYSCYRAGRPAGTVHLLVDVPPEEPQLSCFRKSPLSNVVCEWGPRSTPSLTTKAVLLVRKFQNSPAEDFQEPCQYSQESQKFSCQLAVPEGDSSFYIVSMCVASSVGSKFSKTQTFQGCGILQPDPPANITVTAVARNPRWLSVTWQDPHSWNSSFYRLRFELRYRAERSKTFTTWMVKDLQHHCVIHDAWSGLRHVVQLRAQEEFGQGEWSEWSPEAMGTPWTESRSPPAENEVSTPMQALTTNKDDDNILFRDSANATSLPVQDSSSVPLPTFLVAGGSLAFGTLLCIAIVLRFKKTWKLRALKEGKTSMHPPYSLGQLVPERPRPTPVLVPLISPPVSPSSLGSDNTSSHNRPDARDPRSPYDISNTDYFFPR


Key:
[1] = target: T1, human ASGPR (ASGPR-H1 and ASGPR-H2 …); experiment: flow cytometry on HeLa/ASGPR/BirA cells
[2] = target: T2, human IL6R (Accession no. NP_000556); experiment: flow cytometry on HeLa/BirA cells transfected with human IL6R; antibody at 1 micro M in the sorting step
Protocol: To select cells stably expressing IL6R, antibiotic resistant cells were incubated with 1 micro M of anti-IL6R antibody PF1H-G4T1K439E.Avi/PF1L-KT0 (heavy chain, PF1H-G4T1K439E.Avi (SEQ ID NO: 66); light chain, PF1L-KT0 (SEQ ID NO: 67) in MACS buffer (Auto MACS Rinsing Solution (Miltenyi Biotec, Cat #130-091-222) and MACS BSA Stock Solution (Miltenyi Biotec, Cat #1130-091-376)) for 30 min on ice. After wash in MACS buffer, cells were further incubated with R-phycoerythrin (PE) labelled anti-kappa antibody (Southern Biotech, Cat #2060-09) for 30 min on ice in MACS buffer. After wash in MACS buffer, cells expressing IL6R were sorted by FACSAria IIu sorter (Becton Dickinson). Selected clones were then expanded. Flow cytometry using anti-IL6R antibody PF1H-G4T1K439E.Avi/PF1L-KT0 and R-phycoerythrin (PE) labelled anti-kappa antibody (Southern Biotech, Cat #2060-09) with FACS Verse (Becton Dickinson) confirmed high expression of IL6R. BirA expression was also confirmed by capillary immunoassay using Simple Western Wes (Protein Simple).

binding result [1] | binding result [2] | Binder
binds | – | anti-ASGPR antibody AGA0008Ha-G4T1K439E.Avi/AGA0008La-kOMC (antibody, human IgG4 S228P, kappa, V domains shown) VH: QSVEESGGRLVTPGTPLTLTCTVSGFSLSSYAMGWVRQAPGKGLEYIGFINTGGSPYYASWAKGRFTISRTSTTVDLKMTSPTTEDTATYFCARDYDTSSGYYGYFNLWGPGTLVTVSS VL: AQVLTQTPASVSAAVGGTVTIKCQASENIDSYLAWYQQKPGQPPKLLIYRASTLASGVPSRFKGSGSGTPFTLTISDLECADAATYYCQRYVSLNSGDAFGGGTKVEIKR
– | binds | anti-IL6R antibody PF1H-G4T1K439E.Avi/PF1L-KT0 (antibody, human IgG4 S228P, kappa, V domains shown) VH: QVQLQESGPGLVKPSETLSLTCAVSGYSISDDHAWSWVRQPPGEGLEWIGYISYSGITNYNPSLKGRVTISRDTSKNQFSLKLSSVTAADTAAYYCARVLARITAMDYWGEGTLVTVSS VL: DIQMTQSPSSLSASVGDSVTITCQASQDISSYLNWYQQKPGKAPELLIYYGSELHSGVPSRFSGSGSGTDFTFTISSLEAEDAATYYCGQGNRLPYTFGQGTKVEIER
